Data published in patent US20180339041A1 (Kyowa Kirin, published 2018).

T1: C-terminally FLAG-tagged rat Gas6 recombinant protein (rGas6-F) (rat, UniProt Q63772 28-674, limits assumed, gamma-carboxylated glutamic acid residues in the Gla domain (producer cells co-express rat VKOR and human GGCX); positions not given)
T1 construct: also called rat Gas6-F
T1 sequence (looked up): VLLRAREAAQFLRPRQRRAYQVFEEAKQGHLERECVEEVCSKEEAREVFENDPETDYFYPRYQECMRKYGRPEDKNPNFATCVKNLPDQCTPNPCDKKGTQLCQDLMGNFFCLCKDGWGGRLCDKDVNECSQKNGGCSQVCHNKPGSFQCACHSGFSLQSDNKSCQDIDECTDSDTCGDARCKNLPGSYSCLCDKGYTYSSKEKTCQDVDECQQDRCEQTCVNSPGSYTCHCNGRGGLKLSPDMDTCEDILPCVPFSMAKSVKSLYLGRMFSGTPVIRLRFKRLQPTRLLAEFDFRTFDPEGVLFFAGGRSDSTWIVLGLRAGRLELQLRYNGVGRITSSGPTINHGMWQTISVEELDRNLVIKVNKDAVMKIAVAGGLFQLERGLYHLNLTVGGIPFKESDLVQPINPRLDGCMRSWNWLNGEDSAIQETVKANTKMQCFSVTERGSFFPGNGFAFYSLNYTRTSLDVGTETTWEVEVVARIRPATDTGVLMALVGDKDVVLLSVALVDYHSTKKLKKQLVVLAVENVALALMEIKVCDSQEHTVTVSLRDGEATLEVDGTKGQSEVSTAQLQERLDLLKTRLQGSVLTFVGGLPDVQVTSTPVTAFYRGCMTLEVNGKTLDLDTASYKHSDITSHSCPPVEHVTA

T2: C-terminally FLAG-tagged cynomolgus monkey Gas6 recombinant protein (cGas6-F) (cynomolgus monkey, UniProt Q14393 31-678 (human entry), gamma-carboxylated glutamic acid residues in the Gla domain (producer cells co-express rat VKOR and human GGCX); positions not given)
T2 construct: also called cynomolgus monkey Gas6-F; monkey Gas6-F
T2 chain: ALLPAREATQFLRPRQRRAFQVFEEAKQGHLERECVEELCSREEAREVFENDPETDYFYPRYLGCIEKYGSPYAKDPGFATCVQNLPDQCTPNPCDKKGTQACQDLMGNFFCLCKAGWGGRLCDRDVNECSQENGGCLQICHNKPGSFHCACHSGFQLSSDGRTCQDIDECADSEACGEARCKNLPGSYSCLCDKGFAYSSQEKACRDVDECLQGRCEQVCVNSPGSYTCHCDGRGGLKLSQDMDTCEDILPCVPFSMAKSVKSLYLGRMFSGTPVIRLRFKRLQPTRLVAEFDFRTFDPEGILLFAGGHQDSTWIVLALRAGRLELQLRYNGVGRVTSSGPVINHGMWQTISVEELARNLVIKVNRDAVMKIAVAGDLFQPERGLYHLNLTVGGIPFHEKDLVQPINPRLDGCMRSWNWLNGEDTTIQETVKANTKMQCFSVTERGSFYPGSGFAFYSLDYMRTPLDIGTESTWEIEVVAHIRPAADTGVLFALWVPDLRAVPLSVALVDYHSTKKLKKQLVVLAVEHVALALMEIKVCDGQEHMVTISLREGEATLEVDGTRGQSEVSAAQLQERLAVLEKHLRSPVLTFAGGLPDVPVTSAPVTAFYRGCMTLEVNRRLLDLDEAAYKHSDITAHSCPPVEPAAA


How the values were obtained:
[1] = biological target: T1, C-terminally FLAG-tagged rat Gas6 …; experiment: competition ELISA: rAxl-hFc coated; rGas6-F at 50 ng/mL final premixed with the antibody; bound Gas6-F detected with anti-FLAG M2-HRP; blocked partner rAxl-hFc (Examples 5(4) and 7) [B]
[2] = biological target: T1, C-terminally FLAG-tagged rat Gas6 …; experiment: ELISA: rGas6-F (1 µg/mL) captured on coated anti-FLAG M2 antibody; biotinylated test antibody; streptavidin-HRP/TMB; absorbance 450-570 nm, N=2 (Example 6) [C]
Procedure: (§1) First, 2 μg/mL anti-FLAG antibody [Monoclonal ANTI-FLAG M2 antibody produced in mouse (manufactured by Sigma-Aldrich Co. LLC) diluted with PBS (manufactured by Nacalai Tesque, Inc.)] was dispensed at 50 μL/well to a 96-well plate for ELISA (manufactured by Nalge Nunc International), and the plate was left standing overnight at 4° C. for adsorption. After removal of the immobilization solution, 1% BSA-PBS (manufactured by Nacalai Tesque, Inc.) was added thereto at 300 μL/well, and the plate was left standing at room temperature for 1 hour for blocking and washed five times with Tween 20-PBS (manufactured by Wako Pure Chemical Industries Ltd.).
(§2) Each antibody solution was dispensed thereto at 50 μL/well, and the plate was left standing at room temperature for 1 hour. This plate was washed five times with Tween 20-PBS. Then, Streptavidin HRP Conjugate (manufactured by R&D Systems, Inc.) diluted 200-fold with 1% BSA-PBS was dispensed thereto at 50 μL/well, and the plate was left standing at room temperature for 1 hour. This plate was washed five times with Tween 20-PBS, and TMB (manufactured by Sigma-Aldrich Co. LLC) was added thereto at 50 μL/well and reacted. […] The absorbance at a sample wavelength of 450 nm and a reference wavelength of 570 nm (450 nm-570 nm) was measured using a plate reader.

[3] = biological target: T2, C-terminally FLAG-tagged cynomolgus …; experiment: ELISA: cGas6-F (1 µg/mL) captured on coated anti-FLAG M2 antibody; biotinylated test antibody; streptavidin-HRP/TMB; absorbance 450-570 nm, N=2 (Example 6) [B]
Procedure: as §1, §2

| IC50 (read off the curve) [1] [ng/mL] | EC50 (read off the curve) [2] [ng/mL] | EC50 (read off the curve) [3] [ng/mL] | Binder |
| --- | --- | --- | --- |
| ~30 | ~4 | ~4 | anti-human Gas6 mouse monoclonal antibody KM5321 (KM5321-mKG1 antibody) (antibody, V domains shown, Hybridoma-derived mouse IgG1, kappa; also called KM5321 antibody) VH: QIQLVQSGPELKKPGETVKISCRASGYTFTNYGMNWVKQAPGKGLKWMGWINTNTGEPTYTEEFKGRFAFSLETSATTAYLQINDLKNEDTATYFCARDEGWFVYWGQGTLITVSA VL: ETTVTQSPASLSVATGEKVTIRCITSTDIDDDMNWYQQKPGEPPKLLISEGNTLRPGVPSRFSSSGYGTDFVFTIENTLSEDVADYYCLQTDSVPLTFGAGTKLELK |
| ~50 | ~5 | ~4 | anti-human Gas6 mouse monoclonal antibody KM5320 (KM5320-mKG1 antibody) (antibody, V domains shown, Hybridoma-derived mouse IgG1, kappa; also called KM5320 antibody) VH: QIQLVQSGPELKKPGETVKISCKASGYTFTNYGMNWVKQAPGKGLKWMGWINTETGEPTYSDDFKGRFAFSLETSATTAYLQINNLRNEDMATYFCAREDGYYGTLDYWGQGTSVTVSS VL: SIVMTQTPKFLLVSAGDRVTITCKASQSVSNDVAWYQQKPGQSPKVLIYYASNRYTGVPDRFTGSGYGTDFTFTISTVQAEDLAVYFCQQDYSSPWTFGGGTKLEIK |
